The target of experiment [1] is GFP-LacI-dCENP-C [Drosophila melanogaster]. Description: LacO-tethering recruitment assay (HA immunofluorescence intensity at LacO). The note with it: parent: 1.2; read off a plot.
In experiment [2] the target is CAL1-GFP-LacI [Drosophila melanogaster]. The experiment is described as above. The note with it: parent: 0.18; read off a plot.

For “HA-dCENP-C mutant L1357E; L1406E [Drosophila melanogaster] / GFP-LacI-dCENP-C [Drosophila melanogaster] chain 1 L1357E, chain 1 L1406E”, the response (normalized to GFP) in experiment [1] worked out at 0.15.

On to “HA-dCENP-C mutant L1357E; L1406E [Drosophila melanogaster] / CAL1-GFP-LacI [Drosophila melanogaster] chain 1 L1357E, chain 1 L1406E”, for which, in experiment [2], the response (normalized to GFP) came out at 0.07.

The record behind these values is article PMC6900781.
